# From patent publication US20180177842A1 (CANIMGUIDE THERAPEUTICS, published 2018)
# Ends that are not written are not given here.
# T1: His-tagged P3028 (human, also: His tag, length and end not given here)
# T1 construct: in solution at 0.5 ug/mL, detected with mouse anti-His antibody and rabbit anti-mouse peroxidase (rampo); also called PGE73; His-tag-P3028; not shown: His tag
# T1 peptide: VFDEFKPLVEEPQNLIK
# Biological target: Artificial Cell Surface (ACS): biotinylated cell surface proteins of human PBMCs bound to a streptavidin column (human)
# Experiment: adsorption on ACS column, MALDI-TOF ms
row,Binder,Percent Absorbed
1,"LGEENFKALVLIAFAQYLQQCPFEDHVKLVNEVTEFAKTCVA [Asp-N-generated albumin fragment, SEQ ID NO 228]",100%
2,"DDKETCFAEEGKKLVAASQAALGL [Asp-N-generated albumin fragment, SEQ ID NO 218]",100%
3,"LAKYICENQDSISSKLKECCEKPLLEKHCIAEVEN [Asp-N-generated albumin fragment, SEQ ID NO 226]",100%
4,"DSISSKLKECCEKPLLEKSHCIAEVEN [Asp-N-generated albumin fragment, SEQ ID NO 221]",65%
5,"ICTLSEKERQIKKQTALVELVKHKPKATKEQLKAVM [Asp-N-generated albumin fragment, SEQ ID NO 225]",100%
6,"DKLCTVATLRETYGEM [Asp-N-generated albumin fragment, SEQ ID NO 222]",65%
7,"DRVTKCCTESLVNRRPCFSALEV [Asp-N-generated albumin fragment, SEQ ID NO 219]",87%
8,"RVTKCCTESLVNRRPCFSALEVDETYVPKEFNAETFTFHA [Asp-N-generated albumin fragment, SEQ ID NO 229]",100%
9,"YSVVLLLRLAKTYETTLEKCCAAADPHECYAKVF [Asp-N-generated albumin fragment, SEQ ID NO 223]",100%
10,"YLSVVLNQLCVLHEKTPVSDRVTKCCCTESLVNRRPFSALEV [Asp-N-generated albumin fragment, SEQ ID NO 230]",37%
11,"DETYVPKEFNAETFTHA [Asp-N-generated albumin fragment, SEQ ID NO 220]",86%
12,"KLCTVATLRETYGEMADCCAKQEPERNECFLQHK [Asp-N-generated albumin fragment, SEQ ID NO 224]",100%
13,"DHVKLVNEVTEFAKTCVA [Asp-N-generated albumin fragment, SEQ ID NO 217]",100%
14,"VFLGMFLYEYARRHPDYSVVLLLRLAKTYETTLEKCCAAA [Asp-N-generated albumin fragment, SEQ ID NO 227]",100%

# Results, then the binder that gave them:
row,Percent Absorbed,Binder
1,35%,"LCTVATLR [Trypsin-generated albumin fragment, SEQ ID NO 202]"
2,36%,"LKECCEKPLLEK [Trypsin-generated albumin fragment, SEQ ID NO 201]"
3,34%,"YLYEIAR [Trypsin-generated albumin fragment, SEQ ID NO 203]"
4,71%,"KYLYEIAR [Trypsin-generated albumin fragment, SEQ ID NO 194]"
5,29%,"AAFTECCQAADK [Trypsin-generated albumin fragment, SEQ ID NO 205]"
6,22%,"NECFLQHK [Trypsin-generated albumin fragment, SEQ ID NO 209]"
7,18%,"QEPERNECFLQHK (not fully specified) [Trypsin-generated albumin fragment, SEQ ID NO 211]"
8,59%,"VPQVSTPTLVEVSR [Trypsin-generated albumin fragment, SEQ ID NO 197]"
9,26%,"CCTESLVNR [Trypsin-generated albumin fragment, SEQ ID NO 206]"
10,64%,"KVPQVSTPTLVEVSR [Trypsin-generated albumin fragment, SEQ ID NO 195]"
11,1%,"DDNPNLPR [Trypsin-generated albumin fragment, SEQ ID NO 216]"
12,60%,"VFDEFKPLVEEPQNLIK [Trypsin-generated albumin fragment, SEQ ID NO 196]"
13,41%,"FQNALLVR [Trypsin-generated albumin fragment, SEQ ID NO 199]"
14,13%,"VHTECCHGDLLECADDR [Trypsin-generated albumin fragment, SEQ ID NO 212]"
15,23%,"AVMDDFAAFVEK [Trypsin-generated albumin fragment, SEQ ID NO 208]"
16,32%,"CCAAADPHECYAK [Trypsin-generated albumin fragment, SEQ ID NO 204]"
17,42%,"RPCFSALEVDETYVPK [Trypsin-generated albumin fragment, SEQ ID NO 198]"
18,25%,"QEPERNECFLQHK (not fully specified) [Trypsin-generated albumin fragment, SEQ ID NO 207]"
19,3%,"YICENQDSISSK [Trypsin-generated albumin fragment, SEQ ID NO 214]"
20,8%,"FKDLGEENFK [Trypsin-generated albumin fragment, SEQ ID NO 213]"
21,2%,"LDELRDEGK [Trypsin-generated albumin fragment, SEQ ID NO 215]"
22,36%,"SLHTLFGDK [Trypsin-generated albumin fragment, SEQ ID NO 200]"

# Biological target: T1, His-tagged P3028
# Experiment: PEPSCAN ELISA, peptide on chip;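 note: binding detected by peroxidase ELISA with ABTS, OD405 colour imaged by CCD camera before and after staining, raw OD405 reported as rampo units, air-bubble wells scored 0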
# Procedure: After washing, the peroxidase substrate 2,2′-azine-di-3-ethylbenzthiazoline sulfonate (ABTS) and 2 μL of 3% H2O2 were added. The binding capacity of the mAb was measured as a color development at 405 nm (optical density, OD405). The color development was quantified with a charge-coupled device (CCD)—camera and an image processing system.
# The OD405-values obtained by a CCD-camera was considered as raw data values (“rampo values,” “rampo units,” or “rampo scores”). […] First the CCD-camera made a picture of the card before peroxidase coloring and then again a picture after the peroxidase coloring. […] These values were copied into an excel file and labeled as a raw data file. […] Sometimes a well can contain an air-bubble resulting in a false-positive value. If manual inspection of the cards detect an air-bubble the value are set to 0 for well.
row,Binder,RAMPO Score
1,KKLDTFFVKLSLQTER [SEQ ID NO 370],1140 rampo units
2,KKLDTFFVKLSLFVER [SEQ ID NO 385],380 rampo units
3,KKLDTFFVKLSLFFER [SEQ ID NO 376],348 rampo units
4,KKLDTFFVKLSLVTER [SEQ ID NO 374],446 rampo units
5,KKLDTFFVKLSLFNER [SEQ ID NO 382],599 rampo units
6,KKLDTFFVKLSLFLER [SEQ ID NO 380],360 rampo units
7,KKLDTFFVKLSLSTER [SEQ ID NO 372],635 rampo units
8,KKLDTFFVKLSLFMER [SEQ ID NO 381],501 rampo units
9,KKLDTFFVKLSLFIER [SEQ ID NO 379],375 rampo units
10,KKLDTFFVKLSLFHER [SEQ ID NO 378],463 rampo units
11,KKLDTFFVKLSLFGER [SEQ ID NO 377],343 rampo units
12,KKLDTFFVKLSLFWER [SEQ ID NO 386],374 rampo units
13,KKLDTFFVKLSLFPER [SEQ ID NO 383],551 rampo units
14,KKLDTFFVKLSLRTER [SEQ ID NO 371],502 rampo units
15,KKLDTFFVKLSLFSER [SEQ ID NO 384],369 rampo units
16,KKLDTFFVKLSLWTER [SEQ ID NO 375],430 rampo units
17,KKLDTFFVKLSLTTER [SEQ ID NO 373],494 rampo units

# Next, values leading:
row,RAMPO Score,Binder
1,297 rampo units,KKLDTFFVKLSLFTEF [SEQ ID NO 388]
2,311 rampo units,KKLDTFFVKLSLFTEY [SEQ ID NO 393]
3,292 rampo units,KKLDTFFVKLSLFTET [SEQ ID NO 392]
4,311 rampo units,KKLDTFFVKLSLFTEN [SEQ ID NO 390]
5,404 rampo units,KKLDTFFVKLSLFTDR [SEQ ID NO 387]
6,291 rampo units,KKLDTFFVKLSLFTEK [SEQ ID NO 389]
7,260 rampo units,KKLDTFFVKLSLFTER [SEQ ID NO 391]

# Biological target: Artificial Cell Surface (ACS)
# Experiment: ACS column adsorption of trypsin-digested dHSA, MALDI-TOF MS
row,Binder,Percent Absorbed
1,"KYLYEIAR [KYLYEIAR (trypsin-generated albumin fragment, SEQ ID NO: 194)]",71%
2,"NECFLQHK [NECFLQHK (trypsin-generated albumin fragment, SEQ ID NO: 209)]",22%

# More lines, now with the values ahead:
row,Percent Absorbed,Binder
1,32%,"CCAAADPHECYAK [… (trypsin-generated albumin fragment, SEQ ID NO: 204)]"
2,26%,"CCTESLVNR [… (trypsin-generated albumin fragment, SEQ ID NO: 206)]"
3,34%,"YLYEIAR [YLYEIAR (trypsin-generated albumin fragment, SEQ ID NO: 203)]"
4,23%,"AVMDDFAAFVEK [… (trypsin-generated albumin fragment, SEQ ID NO: 208)]"
5,29%,"AAFTECCQAADK [… (trypsin-generated albumin fragment, SEQ ID NO: 205)]"
6,25%,"QEPERNECFLQHK (not fully specified) [… (trypsin-generated albumin fragment, SEQ ID NO: 207)]"
